Our source for the stoichiometry N values is PMC6203763.

Assay [1] addresses recombinant human wild-type SHMT2 (isoform 3) (human). Kind of assay: SEC; recombinant proteins purified by nickel affinity chromatography, separated by gel filtration, fractions analysed by western blot.
Assay [2] addresses T1, Flag-tagged wild-type SHMT2 expressed in SHMT2-knockout HCT116 cells (human), P34897.
T1 chain: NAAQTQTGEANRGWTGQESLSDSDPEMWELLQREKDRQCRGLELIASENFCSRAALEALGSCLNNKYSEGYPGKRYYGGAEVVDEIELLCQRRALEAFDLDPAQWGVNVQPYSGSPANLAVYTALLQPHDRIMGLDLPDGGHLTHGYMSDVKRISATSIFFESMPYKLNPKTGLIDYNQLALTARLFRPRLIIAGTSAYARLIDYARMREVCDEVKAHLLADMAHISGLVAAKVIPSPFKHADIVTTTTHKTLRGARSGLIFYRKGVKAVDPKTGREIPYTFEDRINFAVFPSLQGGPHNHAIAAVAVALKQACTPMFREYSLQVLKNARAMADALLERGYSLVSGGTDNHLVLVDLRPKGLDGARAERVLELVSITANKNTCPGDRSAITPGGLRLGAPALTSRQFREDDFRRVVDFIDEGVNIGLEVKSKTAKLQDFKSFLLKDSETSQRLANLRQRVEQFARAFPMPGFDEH
Kind of assay: cross-linking; cell lysates treated with or without 0.025% glutaraldehyde, western blot with anti-SHMT2; SHMT2-knockout HCT116 cells expressing Flag-tagged WT or K95Q, and SIRT3-knockout or control HCT116 cells. As to conditions: remark: other sources report otherwise. For orientation: A western blot detects proteins with antibodies after separation by electrophoresis.

Assay [3] deals with T2, serine hydroxymethyltransferase 2 (SHMT2), endogenous in HCT116 cells (human (endogenous in HCT116)), P34897.
T2 chain: T1 chain
The description is as above. Particulars: remark: other sources report otherwise.

As a reminder, the stoichiometry N is the number of molecules, sites or subunits per partner or assembly. As to “recombinant human wild-type SHMT2 (isoform 3) (enzyme)”, the stoichiometry N in assay [1] turned out to be 4.

B1: Flag-tagged wild-type SHMT2 expressed in SHMT2-knockout HCT116 cells, P34897 30-504 (natural protein)
chain: T1 chain
B1 had a stoichiometry N in assay [2] of 4.

B2: serine hydroxymethyltransferase 2 (SHMT2), endogenous in HCT116 cells, P34897 30-504 (natural protein)
chain: T1 chain
B2: the stoichiometry N in assay [3] stood at 4.
